Measurements: patent US20200325209A1 (CSL, published 2020)
Values belong to the binder of their own block, whether it stands above or below them.

Experiments:
[1] = target: T1, HSA WT, soluble (human, UniProt P02768 25-609); experiment: SPR, FcRn over immobilised HSA, pH 6.0
T1 construct: also called wild-type HSA; recombinant wild-type HSA

[2] = target: HSA [G572R], soluble (human, UniProt P02768 25-609); experiment: SPR, FcRn over immobilised HSA, pH 6.0
[3] = target: HSA [Q522L/A552V], soluble (human, UniProt P02768 25-609); experiment: SPR, FcRn over immobilised HSA, pH 6.0
[4] = target: T2, HSA [K573Y], soluble (human, UniProt P02768 25-609); experiment: SPR, FcRn over immobilised HSA, pH 6.0, 1:1 model; pH 6.0
Description: (§1) Spot 3 of each flow cell was activated/deactivated and used for reference subtraction. The flow rate of FcRn/β2m was kept constant at 30 μL/min
(§2) A concentration range of 2 to 0.007 μM (pH6.0) and 20 to 0.078 μM (pH7.3) was used and association and dissociation phases were monitored for 180 and 600 seconds respectively.
(§3) Regeneration of the surface was performed as previously described.

[5] = target: T3, HSA [A552V/G572R], soluble (human, UniProt P02768 25-609); experiment: as above
T3 construct: also called A522V/G572R
Description: as §1, §2, §3

[6] = target: T4, HSA [Q522L/G572R], soluble (human, UniProt P02768 25-609); experiment: as above
Description: as §1, §2, §3

[7] = target: T5, human neonatal Fc receptor FcRn/β2m, soluble recombinant (human, UniProt P55899 24-297; P61769 21-119, alexa-488 label (Examples 2-4); minimal chemical biotinylation with Sulfo-NHS-LC-LC-Biotin (Examples 5-6)); experiment: flow cytometry, labelled FcRn on CHO-displayed HSA, pH 5.4
T5 construct: Heterodimer; extracellular domain is inferred; also called hFcRn/β2M; hsFcRn
Description: (§4) Background fluorescence due to non-specific binding of the labelled FcRn to the cells was subtracted from the value obtained.

[8] = target: T5, human neonatal Fc receptor FcRn/β2m, …; experiment: flow cytometry, labelled FcRn on CHO-displayed HSA, pH 7.3
Description: as §4

[9] = target: T2, HSA [K573Y], soluble; experiment: SPR, FcRn over immobilised HSA, pH 6.0
[10] = target: T3, HSA [A552V/G572R], soluble; experiment: SPR, FcRn over immobilised HSA, pH 6.0
[11] = target: T4, HSA [Q522L/G572R], soluble; experiment: SPR, FcRn over immobilised HSA, pH 6.0

binding result [1]: no binding (tested: 2 µM)
binding result [2]: no binding (tested: 2 µM)
binding result [3]: no binding (tested: 2 µM)
Kd [4]: 0.989 µM
Kd [5]: 4.82 µM
Kd [6]: 4.75 µM
B1: rat FcRn/β2m, soluble recombinant (receptor)
chain: AEPRLPLMYHLAAVSDLSTGLPSFWATGWLGAQQYLTYNNLRQEADPCGAWIWENQVSWYWEKETTDLKSKEQLFLEAIRTLENQINGTFTLQGLLGCELAPDNSSLPTAVFALNGEEFMRFNPRTGNWSGEWPETDIVGNLWMKQPEAARKESEFLLTSCPERLLGHLERGRQNLEWKEPPSMRLKARPGNSGSSVLTCAAFSFYPPELKFRFLRNGLASGSGNCSTGPNGDGSFHAWSLLEVKRGDEHHYQCQVEHEGLAQPLTVDLDSPARSS
b2m: IQKTPQIQVYSRHPPENGKPNFLNCYVSQFHPPQIEIELLKNGKKIPNIEMSDLSFSKDWSFYILAHTEFTPTETDVYACRVKHVTLKEPKTVTWDRDM
notes: Extracellular domain inferred from 'soluble'

fold change to WT [7]: 20.8 fold
geoMFI [7]: 34800
fold change to WT [8]: 1.8 fold
geoMFI [8]: 28.8
B2: HSA [K317E/M329V/K372E/F377I/I388T/A552V/G572R] (clone 3.9), membrane-tethered on CHO cells (other)
chain: DAHKSEVAHRFKDLGEENFKALVLIAFAQYLQQCPFEDHVKLVNEVTEFAKTCVADESAENCDKSLHTLFGDKLCTVATLRETYGEMADCCAKQEPERNECFLQHKDDNPNLPRLVRPEVDVMCTAFHDNEETFLKKYLYEIARRHPYFYAPELLFFAKRYKAAFTECCQAADKAACLLPKLDELRDEGKASSAKQRLKCASLQKFGERAFKAWAVARLSQRFPKAEFAEVSKLVTDLTKVHTECCHGDLLECADDRADLAKYICENQDSISSKLKECCEKPLLEKSHCIAEVENDEMPADLPSLAADFVESKDVCENYAEAKDVFLGVFLYEYARRHPDYSVVLLLRLAKTYETTLEKCCAAADPHECYAEVFDEIKPLVEEPQNLTKQNCELFEQLGEYKFQNALLVRYTKKVPQVSTPTLVEVSRNLGKVGSKCCKHPEAKRMPCAEDYLSVVLNQLCVLHEKTPVSDRVTKCCTESLVNRRPCFSALEVDETYVPKEFNAETFTFHADICTLSEKERQIKKQTALVELVKHKPKATKEQLKAVMDDFVAFVEKCCKADDKETCFAEERKKLVAASQAALGL
notes: not shown: Myc tag and PDGFR transmembrane domain

binding result [9]: no binding (tested: 2 µM)
binding result [10]: no binding (tested: 2 µM)
binding result [2]: no binding (tested: 2 µM)
binding result [3]: no binding (tested: 2 µM)
binding result [11]: no binding (tested: 2 µM)
B3: mouse FcRn/β2m, soluble recombinant (receptor)
chain: SETRPPLMYHLTAVSNPSTGLPSFWATGWLGPQQYLTYNSLRQEADPCGAWMWENQVSWYWEKETTDLKSKEQLFLEALKTLEKILNGTYTLQGLLGCELASDNSSVPTAVFALNGEEFMKFNPRIGNWTGEWPETEIVANLWMKQPDAARKESEFLLNSCPERLLGHLERGRRNLEWKEPPSMRLKARPGNSGSSVLTCAAFSFYPPELKFRFLRNGLASGSGNCSTGPNGDGSFHAWSLLEVKRGDEHHYQCQVEHEGLAQPLTVDLDSSARSS
b2m: IQKTPQIQVYSRHPPENGKPNILNCYVTQFHPPHIEIQMLKNGKKIPKVEMSDMSFSKDWSFYILAHTEFTPTETDTYACRVKHASMAEPKTVYWDRDM
notes: Extracellular domain inferred from 'soluble'; also called murineFcRn; murine FcRn/β2m
